This data set deals with the molecule itself. Put plainly: SEC; full-length PmrA incubated with BeF3- and Mg2+ (5.3 mM BeSO4, 35 mM NaF, 7 mM MgCl2) to mimic phosphorylation; 25 mM Tris pH 8.0, 150 mM NaCl, 5% glycerol. (In gel filtration, larger molecules generally elute earlier.)

B1: Acinetobacter baumannii PmrA full length (natural protein)
chain: MTKILMIEDDFMIAESTITLLQYHQFEVEWVNNGLDGLAQLAKTKFDLILLDLGLPMMDGMQVLKQIRQRAATPVLIISARDQLQNRVDGLNLGADDYLIKPYEFDELLARIHALLRRSGVEAQLASQDQLLESGDLVLNVEQHIATFKGQRIDLSNREWAILIPLMTHPNKIFSKANLEDKLYDFDSDVTSNTIEVYVHHLRAKLGKDFIRTIRGLGYRLGQS
notes: Response regulator PmrA of A. baumannii, UniProt E2FGC2; full length, printed as residues 1–244 in the methods, while the introduction places the DBD at 129–223; Cloned in pET28a; In one SEC run it was incubated with BeF3- and Mg2+ (aspartate phosphorylation mimic); this is treated as a condition of the assay, not as another molecule; also called PmrA FL; full-length PmrA; source: E. coli BL21 …
For B1, the “stoichiometry N” value was 2.

By stoichiometry N is commonly meant the number of molecules, sites or subunits per partner or assembly.

Values taken from article PMC10927774, “Mechanistic and biophysical characterization of polymyxin resistance response regulator PmrA in Acinetobacter baumannii” (Frontiers in Microbiology, 2024).
